Where two headings read alike, the source gives them in different places.

Data on three molecules can be found in patent publication US20200308244A1 (ORIONIS BIOSCIENCES, published 2020).

Common to all, as to experiment: cell-based or functional assay
Assay [1] has as its target T1, type I interferon-α/β receptor (IFNAR), composed of the IFNAR1 and IFNAR2 subunits (human) (UniProt P17181).
T1 sequence (looked up) 1: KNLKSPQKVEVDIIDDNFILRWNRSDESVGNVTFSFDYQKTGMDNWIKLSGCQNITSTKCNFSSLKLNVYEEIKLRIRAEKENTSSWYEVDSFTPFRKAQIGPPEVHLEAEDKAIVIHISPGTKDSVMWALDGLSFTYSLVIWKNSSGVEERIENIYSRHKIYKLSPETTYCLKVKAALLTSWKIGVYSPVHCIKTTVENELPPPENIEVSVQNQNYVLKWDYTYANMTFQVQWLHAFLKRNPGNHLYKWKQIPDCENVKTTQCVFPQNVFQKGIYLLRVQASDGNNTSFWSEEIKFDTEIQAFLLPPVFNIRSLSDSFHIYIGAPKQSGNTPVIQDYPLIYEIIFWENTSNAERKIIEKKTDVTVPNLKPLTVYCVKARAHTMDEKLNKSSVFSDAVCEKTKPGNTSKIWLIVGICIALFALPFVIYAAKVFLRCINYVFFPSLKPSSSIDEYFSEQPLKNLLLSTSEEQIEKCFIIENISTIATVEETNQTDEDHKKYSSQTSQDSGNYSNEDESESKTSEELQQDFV
T1 sequence (looked up) 2: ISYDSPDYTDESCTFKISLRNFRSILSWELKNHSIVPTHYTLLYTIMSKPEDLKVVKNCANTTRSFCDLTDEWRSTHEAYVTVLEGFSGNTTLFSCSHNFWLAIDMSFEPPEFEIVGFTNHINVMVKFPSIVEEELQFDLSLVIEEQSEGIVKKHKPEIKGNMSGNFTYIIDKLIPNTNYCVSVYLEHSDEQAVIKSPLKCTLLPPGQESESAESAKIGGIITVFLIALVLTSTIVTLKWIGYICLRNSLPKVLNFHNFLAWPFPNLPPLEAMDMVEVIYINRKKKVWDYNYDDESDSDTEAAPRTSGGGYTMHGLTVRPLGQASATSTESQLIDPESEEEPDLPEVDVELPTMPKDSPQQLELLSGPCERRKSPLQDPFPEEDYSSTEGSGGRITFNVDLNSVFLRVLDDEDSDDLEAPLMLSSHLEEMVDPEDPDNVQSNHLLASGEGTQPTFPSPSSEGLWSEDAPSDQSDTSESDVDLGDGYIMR

Assay [2] addresses T1, type I interferon-α/β receptor (IFNAR), composed of the IFNAR1 and IFNAR2 subunits (human). This is another data set of the same source.
Assay [3] addresses T2, type I interferon-α/β receptor (IFNAR), composed of the IFNAR1 and IFNAR2 subunits (human, UniProt P17181 28-557; P48551 27-515).
T2 sequence (looked up) 1: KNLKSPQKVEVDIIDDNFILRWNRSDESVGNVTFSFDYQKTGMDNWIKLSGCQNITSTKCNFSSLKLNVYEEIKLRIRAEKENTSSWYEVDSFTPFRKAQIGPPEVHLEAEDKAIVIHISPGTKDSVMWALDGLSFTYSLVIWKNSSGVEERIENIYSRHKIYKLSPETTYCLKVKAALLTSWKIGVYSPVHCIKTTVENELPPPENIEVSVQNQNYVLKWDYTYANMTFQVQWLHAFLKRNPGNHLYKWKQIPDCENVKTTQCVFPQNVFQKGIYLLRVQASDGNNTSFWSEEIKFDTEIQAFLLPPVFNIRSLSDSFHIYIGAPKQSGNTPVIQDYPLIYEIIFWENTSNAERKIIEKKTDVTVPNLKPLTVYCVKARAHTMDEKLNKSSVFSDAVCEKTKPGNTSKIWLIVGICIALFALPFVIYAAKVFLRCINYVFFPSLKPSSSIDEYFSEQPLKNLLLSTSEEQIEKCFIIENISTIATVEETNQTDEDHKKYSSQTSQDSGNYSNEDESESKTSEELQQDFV
T2 sequence (looked up) 2: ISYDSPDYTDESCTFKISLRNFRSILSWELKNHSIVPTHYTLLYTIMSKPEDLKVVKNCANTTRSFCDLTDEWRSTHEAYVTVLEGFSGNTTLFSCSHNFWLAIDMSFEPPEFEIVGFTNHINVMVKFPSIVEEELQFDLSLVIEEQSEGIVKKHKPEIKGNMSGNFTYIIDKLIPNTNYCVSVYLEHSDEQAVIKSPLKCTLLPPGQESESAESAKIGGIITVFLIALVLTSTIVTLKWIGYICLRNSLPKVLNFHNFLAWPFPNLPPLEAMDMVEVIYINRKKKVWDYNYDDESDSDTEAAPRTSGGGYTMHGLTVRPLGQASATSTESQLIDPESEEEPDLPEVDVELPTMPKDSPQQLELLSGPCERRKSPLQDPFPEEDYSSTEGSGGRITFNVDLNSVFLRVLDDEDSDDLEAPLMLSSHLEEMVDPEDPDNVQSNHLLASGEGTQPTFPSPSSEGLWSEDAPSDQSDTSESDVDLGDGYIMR

On to “wild type IFNα2a (Example 7) (from UniProt P01563 24-188) (ligand)”, for which, in assay [1], the EC50 6-16 reporter activity, HL116 turned out to be 0.008 nM and the EC50 6-16 reporter activity, HL116-CLEC9A is 0.006 nM.

B1: wild type interferon alpha 1 (IFNα1) (ligand)
chain: CDLPETHSLDNRRTLMLLAQMSRISPSSCLMDRHDFGFPQEEFDGNQFQKAPAISVLHELIQQIFNLFTTKDSSAAWDEDLLDKFCTELYQQLNDLEACVMQEERVGETPLMNADSILAVKKYFRRITLYLTEKKYSPCAWEVVRAEIMRSLSLSTNLQERLRRKE
In assay [2], B1 gave an EC50 6-16 reporter activity, HL116 of 0.105 nM; an EC50 6-16 reporter activity, HL116 (Exp 1) of 2.38 ng/mL; an EC50 6-16 reporter activity, HL116-CLEC9A of 0.084 nM; an EC50 6-16 reporter activity, HL116-huCD20 (Exp 1) of 3.25 ng/mL. Moreover, in assay [2], the EC50 of luciferase (6-16 reporter) induction in HL116-CLEC9A cells amounted to 1.6 ng/mL; the EC50 of luciferase (6-16 reporter) induction in parental HL116 cells is 2 ng/mL; the EC50 pSTAT1 in PBMC's, CD20 negative (Exp 1) was found to be 7.51 ng/ml; the EC50 pSTAT1 in PBMC's, CD20 negative (Exp 2) stood at 6.77 ng/ml. For the same molecule, in assay [2], the EC50 pSTAT1 in PBMC's, CD20 positive (Exp 1) worked out at 3.97 ng/ml; the EC50 pSTAT1 in PBMC's, CD20 positive (Exp 2) was determined as 2.72 ng/ml; the fold decrease in potency in 6-16 reporter induction relative to IFNα2 lay in the range of 10 to 15 fold; the ratio CD20 neg/pos of EC50 6-16 reporter activity (Exp 1) worked out at 0.7. For the same molecule, in assay [2], the ratio CD20 neg/pos of EC50 pSTAT1 in PBMC's (Exp 1) stood at 2; the ratio CD20 neg/pos of EC50 pSTAT1 in PBMC's (Exp 2) came out at 2.5; the ratio of EC50 6-16 reporter activity, HL116 / HL116-CLEC9A was 1.2.

B2: CD20 VHH-(GGS)20-hIFNα1-His6 (other)
chain: QVQLQESGGGLAQAGGSLRLSCAASGRTFSMGWFRQAPGKEREFVAAITYSGGSPYYASSVRGRFTISRDNAKNTVYLQMNSLKPEDTAVYYCAANPTYGSDWNAENWGQGTQVTVSSVDGGSGGSGGSGGSGGSGGSRSGGSGGSGGSGGSGGSGGSGGSGGSGGSGGSGGSGGSGGSAAACDLPETHSLDNRRTLMLLAQMSRISPSSCLMDRHDFGFPQEEFDGNQFQKAPAISVLHELIQQIFNLFTTKDSSAAWDEDLLDKFCTELYQQLNDLEACVMQEERVGETPLMNADSILAVKKYFRRITLYLTEKKYSPCAWEVVRAEIMRSLSLSTNLQERLRRKELEHHHHHH
On to B2, for which, in assay [3], the “EC50 6-16 reporter activity, HL116-huCD20 (Exp 1)” value is 0.0241 ng/mL; the “EC50 pSTAT1 in PBMC's, CD20 positive (Exp 1)” value amounted to 0.114 ng/ml; the “EC50 pSTAT1 in PBMC's, CD20 positive (Exp 2)” value was found to be 0.085 ng/ml.
